Laboratory results from publication PMC3620054, “Lsb1 Is a Negative Regulator of Las17 Dependent Actin Polymerization Involved in Endocytosis” (PLoS ONE, 2013).

B1: SH3-Lsb2 (purified, GST cleaved off) (domain or fragment, S. cerevisiae, UniProt Q06449 59-110, looked up)
chain: VEALYQFDPQQDGDLGLKPGDKVQLLEKLSPEWYKGSCNGRTGIFPANYVKP
notes: Lsb2 (Pin3), S. cerevisiae, SH3 domain, residues 59-110, from pGEX4T-1; also called SH3 domain of Lsb2; source: E. coli BL21, purified (glutathione Sepharose, thrombin cleavage, size exclusion chromatography)
B2: Lsb2 (purified, GST cleaved off) (natural protein, S. cerevisiae, UniProt Q06449 1-215, looked up)
chain: MSASLINRSLTNIRTELDFLKGSNVISNDVYDQINKSLPAKWDPANAPRNASPASLEYVEALYQFDPQQDGDLGLKPGDKVQLLEKLSPEWYKGSCNGRTGIFPANYVKPAFSGSNGPSNLPPPPQYKAQELQQIPTQNSAASSYQQQPFPPPSTNYYQQPQQQPQQAPPPQQQQQQQQHQSSHSHLKSFGSKLGNAAIFGAGASIGSDIVNNIF
notes: Lsb2 (Pin3), S. cerevisiae, full-length, from pGEX4T-1; also called full-length Lsb2; Pin3; source: E. coli BL21, purified (glutathione Sepharose, thrombin cleavage, size exclusion chromatography)
B3: SH3-Lsb1 (purified, GST cleaved off) (domain or fragment, S. cerevisiae, UniProt P53281 57-109, looked up)
chain: YVEALYDFEAQQDGDLSLKTGDKIQVLEKISPDWYRGKSNNKIGIFPANYVKP
notes: Lsb1, S. cerevisiae, SH3 domain, residues 57-109, from pGEX4T-1; also called SH3 domain of Lsb1; source: E. coli BL21, purified (glutathione Sepharose, thrombin cleavage, size exclusion chromatography)
B4: Lsb1 (purified, GST cleaved off) (natural protein, S. cerevisiae, UniProt P53281 1-241, looked up)
chain: MSASLVNRSLKNIRNELEFLKESNVISGDIFELINSKLPEKWDGNQRSPQNADTEEYVEALYDFEAQQDGDLSLKTGDKIQVLEKISPDWYRGKSNNKIGIFPANYVKPAFTRSASPKSAEAASSSTVSRPSVPPPSYEPAASQYPSQQVSAPYAPPAGYMQAPPPQQQQAPLPYPPPFTNYYQQPQQQYAPPSQQAPVEAQPQQSSGASSAFKSFGSKLGNAAIFGAGSAIGSDIVNSIF
notes: Lsb1, S. cerevisiae, full-length, from pGEX4T-1; also called full-length Lsb1; source: E. coli BL21, purified (glutathione Sepharose, thrombin cleavage, size exclusion chromatography)

Target: T1, Las17 (purified recombinant) (S. cerevisiae, UniProt Q12446 1-633)
T1 construct: Las17, the WASP homolog of S. cerevisiae; also called WASP homolog; source: recombinant, purified, produced as reported [25], [45], [46]
Experiment: SPR; Las17 coupled via an amino group to a CM5 chip, Biacore3000, 25°C, HBS-EP buffer, Lsb1, Lsb2 or their SH3 domains at 25 nM to 10 µM
Details: both partners purified

T1 sequence (Q12446 whole entry): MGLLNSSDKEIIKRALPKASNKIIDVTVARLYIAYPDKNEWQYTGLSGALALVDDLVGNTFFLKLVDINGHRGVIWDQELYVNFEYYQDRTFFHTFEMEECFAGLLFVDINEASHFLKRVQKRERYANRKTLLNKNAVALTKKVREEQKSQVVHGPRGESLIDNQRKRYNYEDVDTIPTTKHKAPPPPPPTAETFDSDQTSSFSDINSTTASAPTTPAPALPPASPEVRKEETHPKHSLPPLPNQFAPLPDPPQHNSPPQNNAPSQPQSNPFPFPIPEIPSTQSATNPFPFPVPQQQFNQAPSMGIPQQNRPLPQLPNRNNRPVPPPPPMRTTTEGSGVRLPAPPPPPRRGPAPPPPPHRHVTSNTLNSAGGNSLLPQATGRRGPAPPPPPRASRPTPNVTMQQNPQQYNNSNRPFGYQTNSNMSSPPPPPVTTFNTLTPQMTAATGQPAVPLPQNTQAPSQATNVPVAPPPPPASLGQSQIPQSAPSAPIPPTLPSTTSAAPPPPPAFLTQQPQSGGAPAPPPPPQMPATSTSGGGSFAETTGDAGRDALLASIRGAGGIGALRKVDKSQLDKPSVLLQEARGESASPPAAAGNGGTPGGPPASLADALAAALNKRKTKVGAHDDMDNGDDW

Binder | Kd
B1 | 730 nM
B2 | 79 nM
B3 | 792 nM
B4 | 30 nM
